Km and kcat data for one protein are collected here from article doi:10.1101/2025.01.14.632876v1.

Substrate in the series: NC(=O)c1ccc[n+]([C@@H]2O[C@H](COP(=O)(O)OP(=O)(O)OC[C@H]3O[C@@H](n4cnc5c(N)ncnc54)[C@H](O)[C@@H]3O)[C@@H](O)[C@H]2O)c1
Nature of the series: purified protein. Conditions: G6PDH activity, co-substrate G6P, 2 M KCl, 100 mM Tris-HCl pH 8.5.

B1: HvG6PDH (Haloferax volcanii DS2) (protein)
chain: MDQPVLLTGAGGRVGQAILGHIGDAYDWRLLDREPLSDEKIPDSVDSTEVYVADVTDETAVRNAMDGVHAVIHLAGDPRPEAPWDSVLRNNIDGTQQMFDAAVDVGVEKFAFASSNHAVGAYETTDRTPDMYRPHHEFRLDGTELPRPSNLYGVSKAAGETLGRYYHDHHDISVVNVRIGNLTQHHPPKEYERGQAMWLSYRDCGHLFECCIEADYDYEIVYGISDNDRKYYSIDRARAVLGYDPQDNSAEFTFEGEPLDEA
B1: the Michaelis-Menten constant (Km) was 198 ± 6 µM and the kcat was 42.5 ± 0.1 s⁻¹.
